Test results from publication PMC8204342, “Dual arginine recognition of LRRK2 phosphorylated Rab GTPases” (Biophysical Journal, 2021).

B1: RILPL2-GFP WT, full length [human] / HA-Rab8a in MLi-2 treated cells (LRRK2 inhibited) [Homo sapiens (Human).] (parent)
chain 1: MEEPPVREEEEEEGEEDEERDEVGPEGALGKSPFQLTAEDVYDISYLLGRELMALGSDPRVTQLQFKVVRVLEMLEALVNEGSLALEELKMERDHLRKEVEGLRRQSPPASGEVNLGPNKMVVDLTDPNRPRFTLQELRDVLQERNKLKSQLLVVQEELQCYKSGLIPPREGPGGRREKDAVVTSAKNAGRNKEEKTIIKKLFFFRSGKQT
chain 2: MAKTYDYLFKLLLIGDSGVGKTCVLFRFSEDAFNSTFISTIGIDFKIRTIELDGKRIKLQIWDTAGQERFRTITTAYYRGAMGIMLVYDITNEKSFDNIRNWIRNIEEHASADVEKMILGNKCDVNDKRQVSKERGEKLALDYGIKFMETSAKANINVENAFFTLARDIKAKMDKKLEGNSPQGSNQGVKITPDQQKRSSFFRC

Variants of: B1
Experiment: co-immunoprecipitation (GFP binder Sepharose) with LI-COR immunoblot quantification
Details: with HA-Rab8a in MLi-2 treated cells (LRRK2 inhibited) [Homo sapiens (Human).]; HEK293 cells, Flag-LRRK2[Y1699C] + HA-Rab8a co-expressed; 500 nM MLi-2 for 90 min; parent: 0.11; read off a plot

ratio to parent | Variant
0.12 | chain 1 MEEPPVREEEEEEGEEDEERDEVGPEGALGKSPFQLTAEDVYDISYLLGRELMALGSDPRVTQLQFKVVRVLEMLEALVNEGSLALEELKMERDHLRKEVEGLRRQSPPASGEVNLGPNKMVVDLTNPNRPRFTLQELRDVLQERNKLKSQLLVVQEELQCYKSGLIPPREGPGGRREKDAVVTSAKNAGRNKEEKTIIKKLFFFRSGKQT [chain 1 D127N]
0.13 | chain 1 MEEPPVREEEEEEGEEDEERDEVGPEGALGKSPFQLTAEDVYDISYLLGRELMALGSDPRVTQLQFKVVRVLEMLEALVNEGSLALEELKMERDHLRKEVEGLRRQSPPASGEVNLGPNKMVVDLTAPNRPRFTLQELRDVLQERNKLKSQLLVVQEELQCYKSGLIPPREGPGGRREKDAVVTSAKNAGRNKEEKTIIKKLFFFRSGKQT [chain 1 D127A]
0.09 | chain 1 MEEPPVREEEEEEGEEDEERDEVGPEGALGKSPFQLTAEDVYDISYLLGRELMALGSDPRVTQLQFKVVRVLEMLEALVNEGSLALEELKMERDHLRKEVEGLRRQSPPASGEVNLGPNKMVVNLTDPNRPRFTLQELRDVLQERNKLKSQLLVVQEELQCYKSGLIPPREGPGGRREKDAVVTSAKNAGRNKEEKTIIKKLFFFRSGKQT [chain 1 D124N]
0.06 | chain 1 MEEPPVREEEEEEGEEDEERDEVGPEGALGKSPFQLTAEDVYDISYLLGRELMALGSDPRVTQLQFKVVRVLEMLEALVNEGSLALEELKMERDHLRKEVEGLRRQSPPASGEVNLGPNKMVVALTDPNRPRFTLQELRDVLQERNKLKSQLLVVQEELQCYKSGLIPPREGPGGRREKDAVVTSAKNAGRNKEEKTIIKKLFFFRSGKQT [chain 1 D124A]
0.11 | chain 1 MEEPPVREEEEEEGEEDEERDEVGPEGALGKSPFQLTAEDVYDISYLLGRELMALGSDPRVTQLQFKVVRVLEMLEALVNEGSLALEELKMERDHLRKEVEGLRRQSPPASGEVNLGPNKMVVDLTDANRPRFTLQELRDVLQERNKLKSQLLVVQEELQCYKSGLIPPREGPGGRREKDAVVTSAKNAGRNKEEKTIIKKLFFFRSGKQT [chain 1 P128A]
0.12 | chain 1 MEEPPVREEEEEEGEEDEERDEVGPEGALGKSPFQLTAEDVYDISYLLGRELMALGSDPRVTQLQFKVVRVLEMLEALVNEGSLALEELKMERDHLRKEVEGLRRQSPPASGEVNLGPNKMVVDLADPNRPRFTLQELRDVLQERNKLKSQLLVVQEELQCYKSGLIPPREGPGGRREKDAVVTSAKNAGRNKEEKTIIKKLFFFRSGKQT [chain 1 T126A]
